According to a protein production outcome set (Wang et al. 2014):

Experiment: label from the status in PepcDB records

Sequence | protein production
MKDGEAATGQAASRPKRADARRNEKNLLDAAAAVFVRSGVEAPVRDIAAEAGVGTATIYRHFPTRADLIIGVYRHQVEACAEAGPALLASSPTPYAALAGWIDLFVDFLVTKHGLAAVLQSDSAGFETLHAYFLDRLVPVCTDLLAAATDSGEIDTDVPPLALMRGVGNLCIGAETPNPSYDARQLVRILIAGLRAAD | not failed
SVMAEGTAVLRRNRPGTKAQDFYNWPDESFDEMDSTLAVQQYIQQNIRADCSNIDKILEPPEGQDEGVWKYEHLRQFCLELNGLAVKLQSECHPDTCTQMTATEQWIFLCAAHKTPKECPAIDYTRHTLDGAACLLNSNKYFPSRVSIKESSVAKLGSVCRRIYRIFSHAYFHHRQIFDEYENETFLCHRFTKFVMKYNLMSKDNLIVPILEEEVQNSVSGESEA | failed
MKPPSAIMETALYADDLDAAEAFYRDVFGLEMVLKLPGQLVFFKCGRQMLLLFDPQESSRADANNPIPRHGAVGQGHFCFYADDKAEVDEWKTRFEALEIPVEHYHRWPNGSYSVYIRDPAGNSVEVGEGKLWGFE | not failed
MDKKKHSLKAPVMTHRAFLALAIPLIFSAMTTPLIGAVDTAIVGHLQDPALIGGVAVGALIFNTMYWLFGFLRVSTSGFSAQALGRKKEDDIMLAFVRPFLLAMFVGLSFILLQHPIKSASLLIISPPEHVGLFAEQYVAIRIWGAPFALISYVVIGWLMGIGRIRGAVTIQIGTNLLNVALDFLFVYWMQWGIGGVAAASLIAEVTGAVAGCLFVLRCYSFSVFSSLTQVLDKRPILHMLTVNRDLFIRTICLLTVLTTFTSIGARFGEVSLAANAILLQLHYLMAYMFDGVANAASIVVGRSVGARDRSLFERVVRLDIVWSSVICLWLVCTLGLMKEPIIALFTSIPAVQAETLQLFGWIMLFPIAGFWGLQLHGMFSGATVARPIRQSMIIAMLVFLISCWLFVPLWGNNGLWLSFIVFTIARSMTLHLSYPALQRLFHDKERSIGA | failed
MYENKIVPLQMDRRKYLQSCVENMSITFVLFGTINIFFNLLINLINIGRINYEHFFKLFSITSGLWIVIILVQITSYLFSSGFFENLATIFLHDNERNKGDIWNIKSIGMFLINIITLGWLSIFSFYGIFSYIINSFDLINNFMLSTTILNFSVNLLFVLNQFLYFLFKVHEIRNIEFHNCLIHFLPGFSRMLESIVLTVKSKIMDNLSKNKNFVKAKNKKRFIDHNSYPYGDQ | failed
MQKKTVGLLLASAGPFLWGSSGTVAQHLFDTTTISPLWLVAVRMLVSGGLLILYGFSRRLPVMVVFHDWRATVRLIVFSLFGMAGVQLTYFMAISTGNAAMAAILQFLSPVMIIIFITATTWQLPGKVDVISVVSAIAGTVLIVTEGHTDSLALPVIAIIWGLLAAVGATIYTLMPTKLLKVYGATPIVGWSMLIGGGLVLVGTGAWHHSPQLTWVAWGQVGFVVIFGTMLAYLFFLQSLEYILPTTASVLGAIEPLAATILSVLFLHVHFNWVGLIGAIMIVGVTILQFAATRANQFVSK | failed
MRKYEIMYIIRPGVEEEAQKALVERFAGVLTNNGAEIINTKEWGKRRLAYEINDLREGFYMILNVNANAEAINEFDRLAKINEDILRHIVVKEEEK | not failed
MKRTIFLLMSILLLLTACGDGHKQTSSDKEQSEHKDNHNKNQVKQIATDKKVQGDNYRTILPFKESQARGLLQDNMANGYNGEDFESGLLELSKEIFPTNKYLYQDGQYLDKKTINAYLDPKYTKKEIDKMSEKEKKSKNANENLGLNPSHNGETDEEKIAKNSPAYLSNILEQDFYGNSDSKGKNIKGMTIGLAMNSVYYYKKEKDGETFSKDLSDKEIEKQGKQMASEMLSRLRENSDLKDIPIHFAIYKQSSQDSITPGEFIVGTTVEEGKTKINSWDNINEKAALIPSSTAADYDETLNNNFKQFNDNLQSYFSNFTQAVGKVKFVNKKAKQLTVDLPIDYYGQAETIGITQYVTEQAEKYFDKLDEYEIRIKDGNTPRALISKTKDDKEPQVHIYHN | failed
MGSIDRYIFRTTLASFALVLVSLTGVIWITQALRGIDLMTSQGQTILTFLGITSLVVPALVLIISPIALMIAISHTLNKLATDSEIIVMNAAGFSPFRLFYPFFYATCVVALLVAFIAAYLAPDGMRRIKQWDAEITADVLTNILQPGRFAQLDKNLTIRIRERLPGGILAGIFIDDRRDPNERVSIVAEHGEVMKNDTGSFLVLETGNLQRFEVGKRDPALVAFGRYGFDMSKFSGQGRDVTLGIRERYLWELFSPSEDDPVYKQIPGQFRSALHDSLLAPIYPFAFAVLTFAFLGAPRTTRQSRNFSIGSSIVAVFGLRMAGFACSVMAVKSPAAVLVQYAMVLGAIGVGMWMIVGGIVVEPPPRLMEAINRSNARIARLFGRPATA | failed
NMTISDIQHAPDYALLSNDEQQLCIQLKILPKPYLVLKEVMFRELLKTGGNLSKSACRELLNIDPIKANRIYDFFQSQNWM | not failed
MKKSKYLTLLSVAALTLLTSGLGSQAVLADTDTAQTTNTSTNTTTDTSKTSTALNHQEAKGQKLTTPVGTLPNAQDAISNKAVLKRVHGYSWKTTPDVSAAGSQKATVVITYTDGTTSEVEVDLEVTGTGCASQNSPVAKTGLTVKVGKSLTARSAISNLSRLRNVDSVTWKQAPSTAKAGTVKGTVLVTYTDKSTDTVDVTVKVSSVVTTKKSVKKSKKKQYVTKTRKIILDRPGKNKTITQKVKLSRTVTTTTTTTKTYTDGKLTKTSKKAKKSYGKWSKGTWKSYKVPAISGYKRSTTKVKAKAVTSKTKNITVKVSYKRVLHKPANAPYYDPADMRAKTGAYYFQSSEKRAYPNLAKYKNVWIRVSILGNRVYVMSGKKVIYTMYSSAGRFEMTNGKYQSDTPRGTFYLKAAYGPSFMSSDGVGARYYMAYYGSDYLFHSVPINNYGSGVYYKGYHYGYGGVGSTAHLTVQGTNPDSLGCIRLTLSDARWLYGQRTSGKLKVGTKVVIKYK | failed
NMRQVLKTDRLVLEPQSMARFDQWFAMERQRDEAGHRDLTEDQAWLRLCARQGMWDAYACGFYYLLDPVSGEMRGEAGFQFRRRGFGPGFDNHPEAAWAVASAHQGRGLAAEAMQALLAHHDRSSGRQRVVALIARSNLPSLRLAERLGFR | failed
MKSAYIFFNPKSGKDEQALAKEVKSYLIEHDFQDDYVRIITPSSVEEAVALAKKASEDHIDLVIPLGGDGTINKICGGVYAGGAYPTIGLVPAGTVNNFSKALNIPQERNLALENLLNGHVKSVDICKVNDDY | failed
MSLSDESFEFDVSVIGLGAMGTIMAQVLLKQGKRVAIWNRSPGKAAALVAAGAHLCESVKAALSASPATIFVLLDNHATHEVLGMPGVARALAHRTIVDYTTNAQDEGLALQGLVNQAGGHYVKGMIVAYPRNVGHRESHSIHTGDREAFEQHRALLEGLAGHTVFLPWDEALAFATVLHAHAFAAMVTFFEAVGAGDRFGLPVSKTARLLLETSRFFVADALEEAVRRLETQDFKGDQARLDVHADAFAHIAQSLHAQGVWTPVFDAVCQVVQRAAAMGYGDQDIAATTKSFAREQEEGHHHHHH | not failed
MKKISILFIFSLILGLFVSEVSAAGPRLKKRPKHVVLVAFDGLSAVAIRNHPMPNFNRLMKEGASTLNNRSILPSSSAPNWASMFTGVGPELHGYTTWGSKTPEIPPFITNQYGRFPGLYGLLRDTHPKAELGYIYEWDGMKYLVDSLAINHFVHAPQTKDHPKGATQFAVNYLKEKKPMYCAVIFEYPDHTGHTYKWESKEYYEKLDELDGYLGEIVAAIEEAGMMDETVIILTADHGGIGTNHGGKTLNEMETPLVFYGKGVKKNYKITESTMVIDVPATEAWLLGVEPHEAWLGNPVTTAFFTK | failed
MKSTLIVIGNIILVILILFIYTMLWYYIGAKGKGIIFGVNLRKKEGLKAVAYWGIFWFLAFSFILSVASRSTISINNKITGILTYLGAISLALFCYLIIIFPITDLIRFILNKLGFSGSLREYMSIIYGRGISIFIAVIIIILFGFWHAIHQTTTNYNISINKKAGKLKQLNVVMVSDVHMGIMIRERGIDKLVTSINKLKPDVVFFCGDMVDESTPTSLEKYYSSAFKEIISKYGVYAITGNHEYATQNSEVAMNYMKKADIKVLEDKAVKVDNSFYVIGRNDAAGGKVKPLNEIMKNADKRLPIIALNHRPVALEEAEKNGVDLQLSGHTHEGQIFPFNFTTKLVFEDDYGYLKKKDFNLIVTSGYGTWGPPIRIGTKGEIVNIKIDFMN | failed
MKKSSILVFLLTYGLFYVSSILFPIDRMWYDALEKPSWTPSGMTIGIVWTVLYGLIALSVAIIYNKYGCKPKTFWFIFLLNYMCNQAFSYFQFSQKDLFLATIDCLLVAVTTLLLIAVSSSLSKVSTWLLIPYFLWATFATYLSWSIYSIN | failed
ANSQLRKQRDENAELAERLASLLKMLPAGVVELSPDGRVIAENLAAESLISGCYIGEYWEAVLERLLTQEADGSFALEAGGESRRLTLQYQDLPASGGRIVLIHDV | failed
MHTLVFLSTRQVLQCQPAACQALPLLPRELFPLLFKVAFMDKKTVVLRELVHTWPFPLLSFQQLLQECAHCSRALLQERPSTESMQAVILGLTARLHTSEPGASTQPLCRKHALRVLDMTGLLDDGVEQDPGTMSMWDCTAAVARTCIAQQQGGAAEPGPAPIPVEVRVDLRVNRASYAFLREALRSSVGSPLRLCCRDLRAEDLPMRNTVALLQLLDAGCLRRVDLRFNNLGLRGLSVIIPHVARFQHLASLRLHYVHGDSRQPSVDGEDNFRYFLAQMGRFTCLRELSMGSSLLSGRLDQLLSTLQSPLESLELAFCALLPEDLRFLARSPHAAHLKKLDLSGNDLSGSQLAPFQGLLQASAATLLHLELTECQLADTQLLATLPILTQCASLRYLGLYGNPLSMAGLKELLRDSVAQAELRTVVHPFPVDCYEGLPWPPPASVLLEASINEEKFARVEAELHQLLLASGRAHVLWTTDIYGRLAADYFSL | failed
MYNKTILESQHTLIPMPSTSTNAQPTLAKQLFTMTWPMLFGVLSLMSFQLVDSAFIGQLGVLPLAAQGFTLPLQMVIIGIQVGLGIATTAVISKALGANDARYAKQLGGLVLMIGSIGVAVFGLLIWLLRYPILSLLSAPETVMPIIDSYWPWWLLSSWAGAVLYFYYSICRANGNTMLPGTMMMVTSGVNLVLDPLFIFTLDLGINGAALATLVAFGFGILVVAPRVKRNHWATTQWQDLNVMKSVTSIGNIMGPAMVSQLLPPLSSMLATKLLASFGTAAVAAWALGSRYEFFAIVSVLALTMSMPPMVGRLLGAKNYRDIQSLVGIAVKFILGFQLLIAAITFLLANPLALLMTSDTQVEQVLHMHLMIVPISLGSLGVCMLMVSICNALGKSYTALTISALRLFVFFLPCLWLGAQLDGIRGLLFGACVGNIMAGISAYLTYRKTIHKLAIKQATA | failed
MKFFGFYRPIALIAGITVSASILTSVATAAESPTSFQAITPAFSSSSAPEADAEANTSEATADLLYVAENQLLIKLSNAVVEDVNGEILMKDNKGTLLENLTAELQAQPGFSIEKVDSHTALLTMNPDEVPDLQDWRCGVGALSGGVAGVVATGLALAALGVATGGTGFAVLAAGGLAGYGTGAVANC | failed
MRREKTMDTLIRSIMIKSKRKMDAKVAQFGLTTQQARVLGFLNDNAANEIIQKDLQRIFQTRGASITSLIQGLEKKQLISRKPSLRDGREKVVTLTKEGKDIVDEFNASFPREDDKAKKILSADEYKTFIELLSKIDDQTD | failed
MHSREYPFMLASMMFDFACLQISSLWERLLGAIGDAAGNALGRVVEAIRTLFEGDPETRRKVSFSVAIIALSAKMAKADGVVNDAEVRAFRQIFDFPDEEAKNVARLYNLARQDVAGYEAYAERLAGLCGSGHANCEMLESVIDGLFHIAKADGLIHERELAFLGRIAEIFRITEDHFETIMARHVHMDGRDPYRVLGVSPSDDFLDIRKRYRSLVAEHHPDKLIARGVPMELHAAANERMAALNAAYAAIEKERRVA | failed
